This is an account of results in paper PMC7160150, “Transcriptional repression of GIF1 by the KIX-PPD-MYC repressor complex controls seed size in Arabidopsis”.

Series [1] addresses T1, MBP-MYC4 (Arabidopsis thaliana (Col-0), UniProt O49687 1-589). Put plainly: EMSA; EMSA kit (Thermo), room temperature, 20 min; binding buffer not stated (protein extraction buffer: 50 mM HEPES pH 7.5, 150 mM NaCl, 1 mM EGTA, 1% Triton X-100). Particulars: protein: recombinant; tags: MBP; chain copies: 2; label: 5'-biotin. (A gel shift assay detects complexes by their altered migration in electrophoresis.)

Series [2] has as its target T2, MBP-MYC3 (Arabidopsis thaliana (Col-0), UniProt Q9FIP9 1-592). The description is as above. Particulars: protein: recombinant; tags: MBP; chain copies: 2; label: 5'-biotin.
For series [3], the target named is T1, MBP-MYC4. The series can be described thus: competition; competes with biotin probe A; EMSA kit (Thermo), room temperature, 20 min; binding buffer not stated (protein extraction buffer: 50 mM HEPES pH 7.5, 150 mM NaCl, 1 mM EGTA, 1% Triton X-100). Particulars: protein: recombinant; tags: MBP; chain copies: 2.
The target in series [4] is T2, MBP-MYC3. The series is described as above. Particulars: protein: recombinant; tags: MBP; chain copies: 2.

T2 sequence (Q9FIP9 whole entry): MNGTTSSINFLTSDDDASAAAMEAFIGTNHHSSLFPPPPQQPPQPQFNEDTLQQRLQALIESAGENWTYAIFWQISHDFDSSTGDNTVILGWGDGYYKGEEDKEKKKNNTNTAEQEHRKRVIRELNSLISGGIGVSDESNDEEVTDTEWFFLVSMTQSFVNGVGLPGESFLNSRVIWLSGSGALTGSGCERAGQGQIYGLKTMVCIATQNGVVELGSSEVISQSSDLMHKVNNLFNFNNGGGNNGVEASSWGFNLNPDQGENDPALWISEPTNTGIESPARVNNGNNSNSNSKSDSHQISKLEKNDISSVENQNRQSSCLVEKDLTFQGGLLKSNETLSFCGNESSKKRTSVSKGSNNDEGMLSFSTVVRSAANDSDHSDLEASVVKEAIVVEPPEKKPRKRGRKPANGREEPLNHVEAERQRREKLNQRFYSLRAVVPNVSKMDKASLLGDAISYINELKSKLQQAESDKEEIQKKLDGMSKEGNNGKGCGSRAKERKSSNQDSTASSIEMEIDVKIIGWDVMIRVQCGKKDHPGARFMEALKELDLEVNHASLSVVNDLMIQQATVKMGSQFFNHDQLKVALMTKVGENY
T1 sequence (O49687 whole entry): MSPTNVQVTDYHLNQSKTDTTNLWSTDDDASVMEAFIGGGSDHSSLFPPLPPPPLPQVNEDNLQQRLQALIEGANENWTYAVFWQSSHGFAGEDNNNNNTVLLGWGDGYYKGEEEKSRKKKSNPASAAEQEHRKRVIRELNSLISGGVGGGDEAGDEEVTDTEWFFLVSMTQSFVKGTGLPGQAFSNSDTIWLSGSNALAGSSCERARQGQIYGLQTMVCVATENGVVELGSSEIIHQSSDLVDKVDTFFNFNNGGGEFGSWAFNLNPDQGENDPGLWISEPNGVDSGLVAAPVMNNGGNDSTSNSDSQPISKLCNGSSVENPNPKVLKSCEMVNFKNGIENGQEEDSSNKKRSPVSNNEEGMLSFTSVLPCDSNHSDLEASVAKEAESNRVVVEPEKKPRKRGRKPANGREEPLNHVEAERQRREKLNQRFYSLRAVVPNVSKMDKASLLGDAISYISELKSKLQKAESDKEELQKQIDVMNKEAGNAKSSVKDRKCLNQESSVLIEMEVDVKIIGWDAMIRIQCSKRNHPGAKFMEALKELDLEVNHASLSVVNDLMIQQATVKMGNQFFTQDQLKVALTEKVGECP

B1: probe A-m (dsDNA)
DNA 1: TAAAGTATGACTCGTAGCCGTACCTCCTCTTCTTCGC
DNA 2: GCGAAGAAGAGGAGGTACGGCTACGAGTCATACTTTA
With B1, the binding result with MBP-MYC4 [1] and with MBP-MYC3 [2] was “no binding” in each case.

B2: probe A (dsDNA)
DNA 1: TAAAGTATGACTCGTCACGTGACCTCCTCTTCTTCGC
DNA 2: GCGAAGAAGAGGAGGTCACGTGACGAGTCATACTTTA
With B2, the binding result with MBP-MYC4 [1] and with MBP-MYC3 [2] was “binds” in each case.

B3: unlabelled probe A (dsDNA)
DNA 1: B2 DNA 1
DNA 2: B2 DNA 2
For B3, the binding result in the series with MBP-MYC4 [3] and in the series with MBP-MYC3 [4] was “binds” each time.
